Measurements from US20180325836A1, “ULTRASONIC TRANSDUCERS SUITABLE FOR ULTRASONIC DRUG DELIVERY VIA A SYSTEM, WHICH IS PORTABLE AND WEARABLE BY THE PATIENT” (BKR IP Holdco LLC, priority 2015, published 2018).

Tests used:
[1] = Drug survivability after ultrasonic exposure (HPLC analysis of insulin); type: physicochemical
Description: Since the transducers of this invention are designed primarily for application in a drug delivery system the Applicant deemed it necessary to test the effect of the ultrasonic signal upon an active pharmaceutical substance. High intensity and high frequency ultrasound is theorized to be capable of inducing a cavitation effect within a drug, leading to an increase in temperature and a degradation of the drug molecule. For the following experiment Insulin (Humulin Regular-supplied by the Eli Lilly Company) was subjected to ultrasound emitted from a stacked array of the transducers of this invention, set to operate at 20 k Hz frequency and at 125 mW/sq. cm intensity level, for one, eight and eleven continuous hours of exposure. The insulin was placed in a plastic pouch within a hydrophone tank containing water and stirred during ultrasonic exposure. A control sample, which was untreated, but allowed to sit in the pouch and tank for one, eight and eleven hours, was also made. Samples were sent to Celsis Laboratories for independent analysis.

rat skin = conditions: rats, after ultrasonic transdermal insulin delivery with transducer array
Description: The belly of the rats were shaved to produce a skin area as close in configuration as would be present in the human situation. The transducer arrays were placed directly onto the rat skin surface and adhered to the skin by means of an adhesive.
A section of the skin where the transducer was placed is marked on the skin.

rats = assay: Ultrasonically enhanced transdermal insulin delivery in live rats, blood glucose levels; type: in vivo, rat
Description: A four-element transducer was fabricated using four standard cymbal element transducers in one array system (Array #1) and four stacked cymbal element transducers in another system (Array #2). Array #1, the standard array, was set to operate at 20 k Hz frequency and at 125 mW/sq. cm intensity level. Array #2, the stacked array, was set to operate at 20 k Hz frequency and at 225 mW/sq. cm intensity level.
The transducer's arrays were fitted with a reservoir at the bottom end, into which Humulin Regular Insulin (supplied by Eli Lilly Company) was inserted. A total of […] of insulin was added, providing 100 units of insulin for the each test.
Two groups of test rates were assembled. The first group (Group-1) would receive the ultrasonic transmission while the second group would receive no ultrasound. In the second group (Group-2) the transducers arrays were loaded with insulin and the insulin was allowed to pool onto the surface of the rat skin, but there was no active ultrasonic transmission.
Next a frequency generator was employed to propagate the pulsed ultrasonic transmission, which used 100 millisecond pulses, with a pulse rate of one pulse per second, a duty cycle of 10%, for one hour.
Both Group-1 and Group-2 animals were tested for 120 minutes. Blood samples were taken from the animals according to standard investigative procedure every 30 minutes for the first hour and every hour after and analyzed for glucose levels and the presence of insulin. The Group-1 animals were exposed to ultrasound for 60 minutes, after which the ultrasound was terminated for the balance of the test period. Glucose levels in both groups were observed over the 120 minute period.

## Insulin [Humulin Regular]
[1]; control sample, no ultrasound, left in pouch and tank
  degradation of insulin or excipient solution (HPLC scan): no degradation
[1]; ultrasonically treated sample, eight hours of continuous exposure, 20 k Hz, 125 mW/sq. cm
  degradation of insulin or excipient solution (HPLC scan): no degradation
[1]; ultrasound from stacked array, 20 k Hz, 125 mW/sq. cm, one, eight and eleven continuous hours
  change in the insulin versus untreated insulin (independent analysis): no change
Rat skin
  skin damage at test area: no skin damage
rats; Group-1 rats, insulin on skin with active ultrasound (20 k Hz), minute 30 and minute 60
  glucose level: significant reduction
rats; Group-1 rats, minute 60 to 120, ultrasound terminated at minute 60
  glucose level after termination of the ultrasound: rise
rats; Group-2 rats, insulin on skin, no ultrasound, minute 30 and minute 60
  glucose level: no lowering
rats; Group-2 rats, no ultrasound, minute 60 to 120
  glucose level: no decrease
rats; insulin placed on the skin or delivered via transdermal patch, without ultrasound
  permeation through the skin: will not permeate
